Assay results from patent US20120213774A1 (Hoffmann-La Roche, published 2012).
Changes are numbered by the printed parent chain. Values belong to the binder of their own block, whether it stands above or below them.

Legend:
[1] = biological target: T1, human IL33R (ST2) on human cells (human, UniProt Q01638 19-556); assay: cell-based or functional assay
T1 sequence (looked up): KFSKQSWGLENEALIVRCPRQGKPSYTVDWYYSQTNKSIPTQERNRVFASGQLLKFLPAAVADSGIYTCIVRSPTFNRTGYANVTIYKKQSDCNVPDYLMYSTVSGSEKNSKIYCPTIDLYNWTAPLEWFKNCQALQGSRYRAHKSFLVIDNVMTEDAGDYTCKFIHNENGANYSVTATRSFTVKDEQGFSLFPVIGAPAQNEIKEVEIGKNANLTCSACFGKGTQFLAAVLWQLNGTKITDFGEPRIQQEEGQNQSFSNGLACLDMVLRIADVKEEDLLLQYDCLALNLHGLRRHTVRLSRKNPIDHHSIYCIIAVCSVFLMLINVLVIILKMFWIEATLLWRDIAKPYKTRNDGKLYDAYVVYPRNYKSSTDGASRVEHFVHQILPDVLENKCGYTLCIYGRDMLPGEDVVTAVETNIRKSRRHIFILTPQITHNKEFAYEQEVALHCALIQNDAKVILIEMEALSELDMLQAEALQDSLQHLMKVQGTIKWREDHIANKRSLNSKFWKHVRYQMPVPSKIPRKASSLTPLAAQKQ

[2] = biological target: T2, Monomeric human ST2 ECD with 6His Avitag (human, UniProt Q01638 19-328); assay: SPR (BIACORE T100, 37 C, pH 7.4), antibody captured by anti-human Fc, monomeric ST2 ECD in solution, apparent KD, 1:1 model
T2 construct: extracellular domain; also called human ST2 ECD (His-Avitag monomer); not shown: 6His Avitag
T2 sequence (looked up): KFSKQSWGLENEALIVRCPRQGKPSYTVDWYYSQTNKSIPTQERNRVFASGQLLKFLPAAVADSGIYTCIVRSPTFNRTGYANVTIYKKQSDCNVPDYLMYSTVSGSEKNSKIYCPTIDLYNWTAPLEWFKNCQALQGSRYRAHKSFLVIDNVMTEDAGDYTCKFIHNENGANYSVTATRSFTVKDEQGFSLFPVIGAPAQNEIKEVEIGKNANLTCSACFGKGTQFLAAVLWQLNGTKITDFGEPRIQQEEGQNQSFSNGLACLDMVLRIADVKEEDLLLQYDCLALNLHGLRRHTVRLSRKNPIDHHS
Procedure: (§1) Monomeric human ST2 ECD with 6His Avitag™ (Avidity, LLC, US) was added in various concentrations in solution. Association was measured by injection of ST2 ECD for a contact time of 120 sec. (single cycle-kinetic) at 37° C.; dissociation was measured by washing the chip surface with buffer for 1800 sec. at 37° C. For calculation of apparent KD and other kinetic parameters the Langmuir 1:1 model was used.

[3] = biological target: T2, Monomeric human ST2 ECD with 6His Avitag; assay: SPR (BIACORE T100, 37 C, pH 7.4), antibody captured by anti-human Fc, monomeric ST2 ECD in solution
Procedure: as §1

[4] = biological target: T1, human IL33R (ST2) on human cells; assay: cell-based or functional assay; remark: listed apart in the source
[5] = biological target: T3, recombinant cyno ST2 Fc chimera (cynomolgus); assay: competition ELISA: antibody against biotinylated human IL33 on captured cyno ST2 Fc chimera
T3 construct: also called cynomolgus ST2
Procedure: (§2) The test was performed on 384 well MaxiSorp™ microtiter plates (Sigma-Aldrich, Nunc. DE, Cat. No. 464718) at RT. After each incubation step plates were washed 3 times with PBST (Phosphate Buffered Saline Tween®-20). […] Thereafter the wells were blocked with PBS supplemented with 0.1% Tween®-20 and 2% BSA (Roche Diagnostics GmbH, DE) for 1 h. […] Dilutions of purified antibodies or supernatants from hybridoma/B-cells in PBS with 0.5% BSA and 0.05% Tween®-20 were incubated with the receptor protein for 1 h. Biotinylated human IL33 (PeproTech, US, Cat No. 500-P261) was added for an additional hour to build up the complex. IL33 was biotinylated with Sulfo-NHS-LC-Biotin (Thermo Scientific Pierce, US, Cat. No. 21327) according to the manufacturer's protocol and purified using Zeba™ Desalt Spin Column (Thermo Scientific Pierce, US, Cat. No. 89889). Binding of the biotinylated IL33 to the complex was detected with 1:4000 diluted streptavidin HRP (Roche Diagnostics GmbH, DE, Cat. No. 11089153001). After 1 h the plates were washed 6 times with PBST and developed with freshly prepared BM blue POD substrate solution (BM blue: 3,3′-5,5′-Tetramethylbenzidine, Roche Diagnostics GmbH, DE, Cat. No. 11484281001) for 12 minutes at RT. Absorbance was measured at 370 nm. […]

[6] = biological target: cynomolgus IL33R (ST2) on cynomolgus NK cells (cynomolgus); assay: cell-based or functional assay
[7] = biological target: T4, recombinant human ST2/IL-1R4 Fc chimera (R&D Systems, Cat. No. 523-ST) (human, UniProt Q01638 19-328); assay: competition ELISA: antibody against biotinylated human IL33 on captured human ST2/IL-1R4 Fc chimera
T4 construct: Bought product; also called ST2/IL-1R4 protein; not shown: Fc part of the bought chimera (captured by anti-human IgG Fc)
T4 sequence (looked up): T2 sequence (looked up)
Procedure: as §2

- IC50, IFN-γ secretion by human NK cells stimulated with IL33 and IL-12 [1]: 1.3 nM
- Kd [2]: 1.1 nM
- koff [3]: 0.0051 s⁻¹
- kon [3]: 4.9e+06 M⁻¹ s⁻¹
- t1/2 [3]: 2 min
- NFkB IC50 [4]: 0.28 nM
B1: humanized ra170 10.12 (antibody, V domains shown)
VH: VQLVQSGAEVKKPGASVKVSCKASGFSLSSHDISWVRQAPGQGLEWMGYIWSDENTYYASWAQGRVTMTTDTSTSTAYMELRSLRSDDTAVYYCARDQYRSSGVSDYDIWGPGTLVTVSS
VL: AAVMTQSPATLSVSPGERATLSCRSSQSVGNNNDLAWYQQKPGQAPRLLIYKASTRATGIPARFSGSGSGTEFTLTISSLQSEDFAVYYCLGGYDDDADNTFGGGTKVEIK

- IC50, IFN-γ secretion by human NK cells stimulated with IL33 and IL-12 [1]: 1.8 nM
- Kd [2]: 0.14 nM
- koff [3]: 0.00043 s⁻¹
- kon [3]: 3.1e+06 M⁻¹ s⁻¹
- t1/2 [3]: 27 min
- NFkB IC50 [4]: 0.04 nM
B2: humanized ra170 11.12 (antibody, V domains shown)
VH: B1 VH with N55S
VL: B1 VL

- IC50 [5]: 0.13 nM
- IC50, GM-CSF release of KU812 basophil cells stimulated with IL33 [1]: 1.31 nM
- IC50, IFN-γ secretion by human NK cells stimulated with IL33 and IL-12 [1]: 0.27 nM
- IC50, IL-5 release of KU812 basophil cells stimulated with IL33 [1]: 1.48 nM
- IC50, IL-5 release of human Th2 cells restimulated with IL33 [1]: 2.77 nM
- IC50, IL-5 release of primary mast cells stimulated with IL33 [1]: ≤ 0.2 nM
- IC50, IL-13 release of KU812 basophil cells stimulated with IL33 [1]: 3.49 nM
- IC50, IL-13 release of human Th2 cells restimulated with IL33 [1]: 1.1 nM
- IC50, IL-13 release of primary mast cells stimulated with IL33 [1]: ≤ 0.4 nM
- IC50, IFNγ release of cynomolgus NK cells stimulated with human IL33 and cynomolgus IL-12 [6]: 0.109 nM
- IC50 [7]: 0.32 nM
- NFkB IC50 [4]: 0.025 nM
B3: Antibody ra170 (rabbit IgG1) (antibody, V domains shown)
VH: QSVEESGGRLVTPGTPLTLTCTVSGFSLSSHDMSWVRQAPGKGLEWIGYIWSDDNTYYASWAKGRFTISKTSTTVDLKITSPTTEDTATYFCARDQYRSSGVSDYDIWGPGTLVTVSS
VL: AAVLTQTPSPVSAAVGGTVTISCQSSQSVGNNNDLAWYQQKPGQPPKILIYKASTLASGVPSRFEGSGSGTQFTLTISDVQCDDAATYYCLGGYDDDADNTFGGGTEVVVK
notes: Rabbit monoclonal from B cell cloning; they are assigned to this molecule; also called Mab ra170; clone Ra170
- IC50, eosinophil viability (IL33 dependent survival) [1]: 1.3 nM

- Kd [2]: 0.0027 nM
- koff [3]: 1.3e-05 s⁻¹
- kon [3]: 4.6e+06 M⁻¹ s⁻¹
- t1/2 [3]: 881 min
B4: ra170 IgG4 SPLE (antibody, V domains shown)
VH: B3 VH
VL: AAVLTQTPSPVSAAVGGTVTISCQSSQSVGNNNDLAWYQQKPGQPPKILIYKASTLASGVPSRFEGSGSGTQFTLTISDVQCDDAATYYCLGGYDDDADNTFGGGTEVVVKR
